Laboratory results as given in patent publication US11634477 (dated 2023).

Assays:
[1] = target: SARS-CoV RBD (SARS-CoV, UniProt P59594); assay: ELISA
[2] = target: SARS-CoV-2 RBD (SARS-CoV-2, UniProt P0DTC2); assay: ELISA

Binder | EC50 [1] [µg/mL] | EC50 [2] [ng/mL]
C126 (antibody, V domains shown) VH: QVQLQESGPGLVKPSETLSLSCAVSGGSIGSYFWSWIRQPPGKGLEWIGYLHYSGSTNYNPSLKSRVTISVDTSKNQFSLKLSSVTAADTAVYYCARLQWLRGAFDIWGQGTMVTVSS VL: NFMLTQPHSVSESPGKTVTISCTGSSGSIASNYVQWYQQRPGSAPTTVINEDNQRPSGVPDRFSGSIDSSSNSASLTISGLKTEDEADYYCQSYDSSNLVFGGGTKLTVL | > 1 | 4.78
C132 (antibody, V domains shown) VH: QVQLQESGPGLVKPSGTLSLTCAVSGGSISSNNWWSCVRQPPGKGLEWIGEIYHSGSTNYNPSLKSRVTISVDKSKNQFSLKLSSVTAADTAVYYCARGGDTAMGPEYFDYWGQGTLVTVSS VL: QSALTQPASVSGSPGQSITISCTGTSSDVGGYNYVSWYQQHPGKAPKLMIYDVSNRPSGVSNRFSGSKSGNTASLTISGLQAEDEADYYCSSYTSSSTLLFGGGTKLTVL | > 1 | 2.92
C156 (antibody, V domains shown) VH: QVQLVESGGGVVQPGRSLRLSCAASGFTFSNYGMHWVRQAPGKGLEWVAVISYDGNNKYYADSVKGRFTISRDNSKNTLYLQMNSLRAEDTAVYYCAKDPFPLAVAGTGYFDYWGQGTLVTVSS VL: SYELTQPPSVSVAPGQTARISCGGNNIGSKNVHWYQQKPGQAPVLVVYDDSDRPSGIPERFSGSNSGNTATLTISRVEAGDEADYYCQVWDSSSDPWVFGGGTKLTVL | > 1 | 3.32
C105 (antibody, V domains shown) VH: QVQLVESGGGLIQPGGSLRLSCAASGFTVSSNYMSWVRQAPGKGLEWVSVIYSGGSTYYADSVKGRFTISRDNSKNTLYLQMNSLRAEDTAVYYCARGEGWELPYDYWGQGTLVTVSS VL: QSALTQPPSASGSPGQSVTISCTGTSSDVGGYKYVSWYQQHPGKAPKLMIYEVSKRPSGVPDRFSGSKSGNTASLTVSGLQAEDEADYYCSSYEGSNNFVVFGGGTKLTVL | > 1 | 5.2
C027 (antibody, V domains shown) VH: EVQLVESGGGVVQPGRSLRLSCAASGFTFSSYGMHWVRQAPGKGLEWVAVISYDGSNKYYADSVKGRFTISRDNSKNTLYLQMNSLRAEDTAVYYCAKASGIYCSGGDCYSYYFDYWGQGTLVTVSS VL: not shown | 0.696 | 2.65
C131 (antibody, V domains shown) VH: QVQLVQSGSEVKKPGSSVKVSCKASGGTFSSYAFSWVRQAPGQGLEWMGRIIPILALANYAQKFQGRVTITADKSTSTAYMELSSLRSEDTAVYYCARVNQAVTTPFSMDVWGQGTTVTVSS VL: not shown | > 1 | 1.67
C165 (antibody, V domains shown) VH: QVQLVQSGAEVKKPGSSVKVSCKASGGTFSSYAINWVRQAPGQGLEWMGRIIPIVGIANYAQKFQGRVTITADKSSSTAYMELSSLRSEDTAVYYCARDLLDPQLDDAFDIWGQGTMVTVSS VL: not shown | > 1 | 4.25
C003 (antibody, V domains shown) VH: EVQLVESGGGLIQPGGSLRLSCAASGFTVSSNYMSWVRQAPGKGLEWVSVIYSGGSTYYADSVKGRFTISRDNSKNTLYLQMNSLRAGDTAVYYCARDYGDFYFDYWGQGTLVTVSS VL: not shown | > 1 | 6.37
C108 (antibody, V domains shown) VH: QVQLQESGPGLVKPSGTLSLTCAVSGGSISSTNWWSWVRQPPGKGLEWIGEIYHTGSTNYNPSLKSRVTISVDKSKNQFSLKLSSVTAADTAVYYCVRDGGRPGDAFDIWGQGTMVTVSS VL: QSALTQPASVSGSPGQSITISCTGTSSDVGGYNYVSWYQQHPGKAPKLMIYDVSNRPSGVSNRFSGSKSGNTASLTISGLQAEDEADYYCNSYTSSSTRVFGTGTKVTVL | > 1 | 5.32
C115 (antibody, V domains shown) VH: QVQLVESGGGLIKPGRSLRLSCTASGFTFGDYAMTWFRQAPGKGLEWVGFIRSKAYGGTTGYAASVKYRFTISRDDSKSIAYLQMDSLKTEDTAVYYCTRWDGWSQHDYWGQGTLVTVSS VL: DIVMTQSPLSLSVTPGEPASISCRSSQSLLHSNGNNYFDWYLQKPGQSPQLLIYLGSNRASGVPDRFSGSGSGTDFTLKISRVEAEDVGVYYCMQVLQIPYTFGQGTKLEIK | > 1 | 3.4
C124 (antibody, V domains shown) VH: EVQLVESGGGLVQPGGSLRLSCAASGFTFSGYSMNWVRQAPGKGPEWVSYISRSSSTIYYADSVKGRFTISRDNAKNSLYLQMNSLRDEDTAVYYCAREGARVGATYDTYYFDYWGQGTLVTVSS VL: EIVLTQSPATLSLSPGERATLSCRASQSFSSYLAWYQQKPGQAPRLLIYDASNRATGIPARFSGSGSGTDFTLTISSLEPEDFAVYYCQQRNNWPPEWTFGQGTKVEIK | > 1 | 2.23
C113 (antibody, V domains shown) VH: QVQLVESGGGVVQPGRSLRLSCAASGFTFSNFGMHWVRQAPGKGLEWVAVIWYDGSNKYYADSVKGRFTISRDNSKNTLYLQMNSLRAEDTAVYYCARGVNPDDILTGVDAFDIWGQGTMVTVSS VL: DIQMTQSPSTLSASVGDRVTITCRASQSMSSWLAWYQQKPGNAPKLLIYKASSLESGVPSRFSGSGSGTEFTLTISSLQPDDFATYYCQQHNSSPLTFGGGTKVEIK | > 1 | 6.93
C207 (antibody, V domains shown) VH: not shown VL: EIVLTQSPATLSLSPGERATLSCRASQSVSSYLAWYQQKPGQAPRLLIYDASNRATGIPARFSGSGSGTDFTLTISSLEPEDFAVYYCQQRSNWPRGFGQGTKVEIK | > 1 | 1.87
C133 (antibody, V domains shown) VH: QVQLVESGGGVVQPGRSLRLSCAASGFTFSSYAMHWVRQAPGKGLEWVAVILYDGSNKYYADSVKGRFTISRDNSKNTLYLQMNSLRAEDTAVYYCARDSDVDTSMVTWFDYWGQGTLVTVSS VL: not shown | > 1 | 1.98
C145 (antibody, V domains shown) VH: EVQLVESGGGLIQPGGSLRLSCAASGFSVSSNYMSWVRQAPGKGLEWVSVIYSGGSTYYADSVKGRFTISRDNSKNTLYLQMNSLRAEDTAVYYCAREGEVEGYYDFWSGYSRDRYYFDYWGQGTLVTVSS VL: QSALTQPASVSGSPGQSITISCTGTSSDVGGYNYVSWYQQHPGKAPKLMIYDVSNRPSGVSNRFSGSKSGNTASLTISGLQAEDEADYYCSSYTSSTTRVFGTGTRVTVL | > 1 | 3.86
C002 (antibody, V domains shown) VH: EVQLVESGGGVVQPGRSLRLSCAASGFTFSIYGMHWVRQAPGKGLEWVAVISYDGSNKYYADSVKGRFTISRDNSKNTLYLQMNSLRAEDTAVYYCAKEGRPSDIVVVVAFDYWGQGTLVTVSS VL: not shown | > 1 | 3.14
C029 (antibody, V domains shown) VH: QVQLQESGPGLVKPSQTLSLTCTVSGGSISSGGYYWSWIRQHPGKGLEWIGYIYYSGSTYYNPSLKSRVTISVDTSKNQFSLKLSSVTAADTAVYYCARTMYYYDSSGSFDYWGQGTLVTVSS VL: not shown | > 1 | 4.13
